Results from publication PMC10786891, “Massively parallel profiling of RNA-targeting CRISPR-Cas13d”.
Substitutions are numbered along the chain they refer to. Names may count otherwise.

Target: T1, EsCas13d, nuclease-dead (Eubacterium siraeum, UniProt B0MS50, R295A;H300A;R849A;H854A)
T1 sequence: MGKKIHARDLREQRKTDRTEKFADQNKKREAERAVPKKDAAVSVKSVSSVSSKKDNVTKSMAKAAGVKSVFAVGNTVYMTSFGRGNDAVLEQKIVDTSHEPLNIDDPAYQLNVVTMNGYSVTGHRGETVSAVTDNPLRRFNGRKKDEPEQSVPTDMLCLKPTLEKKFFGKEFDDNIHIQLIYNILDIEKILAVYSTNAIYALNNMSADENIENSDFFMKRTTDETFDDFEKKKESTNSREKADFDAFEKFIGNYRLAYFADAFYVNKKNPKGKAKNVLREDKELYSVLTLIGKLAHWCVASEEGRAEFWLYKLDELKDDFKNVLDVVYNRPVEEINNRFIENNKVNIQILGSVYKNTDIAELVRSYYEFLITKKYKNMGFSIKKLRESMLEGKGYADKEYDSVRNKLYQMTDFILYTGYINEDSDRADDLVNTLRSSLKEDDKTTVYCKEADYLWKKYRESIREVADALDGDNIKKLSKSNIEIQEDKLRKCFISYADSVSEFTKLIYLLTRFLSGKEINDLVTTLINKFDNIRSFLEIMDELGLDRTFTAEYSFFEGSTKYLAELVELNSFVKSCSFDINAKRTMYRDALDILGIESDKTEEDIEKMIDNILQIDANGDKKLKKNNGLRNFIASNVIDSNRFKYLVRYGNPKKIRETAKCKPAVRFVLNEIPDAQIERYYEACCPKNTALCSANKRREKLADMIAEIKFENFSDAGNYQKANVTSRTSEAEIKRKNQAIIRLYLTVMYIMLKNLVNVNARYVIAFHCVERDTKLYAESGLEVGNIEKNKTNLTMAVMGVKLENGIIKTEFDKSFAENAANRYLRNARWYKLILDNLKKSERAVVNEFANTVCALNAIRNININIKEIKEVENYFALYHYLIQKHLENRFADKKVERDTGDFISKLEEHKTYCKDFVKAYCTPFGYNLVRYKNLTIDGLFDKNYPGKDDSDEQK
Assay: crRNA (strand 1, pre-loaded); Mg2+; 40 mM Tris-HCl pH 7.5, 150 mM NaCl, 6 mM MgCl2, 1 mM DTT, 0.1% Tween-20, 0.2 mg/ml BSA; 25 C; 10 min per concentration, then washed
Conditions: tags: His6-TwinStrep-SUMO cleaved; N-terminal SNAP kept (SNAP-Surface 488); label: 3' end held by stalled T7 RNA polymerase

B1: target 1 insU 3' of 14,insU 3' of 12 (mixed)
RNA 1: CACCCGUGCAAAAAUGCAGGGGUCUAAAACUGAGCGGAUAACCUCUCUAUGG
RNA 2: GGGAAUGGAUCCACAUCUACGAAUUCGUACCAUAGAGAUGGUUUAUCCGCUCACCGAGAUCGGAAGAGCACACGU
Kd: 26.6 ± 2.7 nM

B2: target 1 C4A,C21U (mixed)
RNA 1: B1 RNA 1
RNA 2: GGGAAUGGAUCCACAUCUACGAAUUCGUACUAUAGAGAGGUUAUCCGAUCACCGAGAUCGGAAGAGCACACGU
Kd: 4.4 ± 0.7 nM

B3: target 1 insG 3' of 7,insC 3' of 3 (mixed)
RNA 1: B1 RNA 1
RNA 2: B1 RNA 2 with U39G, G41U, U43A, A45C, U46G, C48G, G49C, C50U, U51C
Kd: 6.68 ± 0.19 nM

B4: target 1 insC 3' of 11,insU 3' of 9 (mixed)
RNA 1: B1 RNA 1
RNA 2: B1 RNA 2 with U39G, G41U, U42C, U44A, A45U
Kd: 40 ± 17 nM

B5: target 1 U3G,G12C (mixed)
RNA 1: B1 RNA 1
RNA 2: B2 RNA 2 with U31C, G40C, A48C, U49G
Kd: 8.1 ± 0.9 nM

B6: target 1 U3A,G15C (mixed)
RNA 1: B1 RNA 1
RNA 2: B2 RNA 2 with U31C, G37C, A48C, U49A
Kd: 32.9 ± 2.5 nM

B7: target 1 complement block 5-11 (mixed)
RNA 1: B1 RNA 1
RNA 2: B2 RNA 2 with U31C, U41A, U42A, A43U, U44A, C45G, C46G, G47C, A48C
Kd: 19.2 ± 0.6 nM

B8: target 1 C7G,A18C (mixed)
RNA 1: B1 RNA 1
RNA 2: B2 RNA 2 with U31C, A34C, C45G, A48C
Kd: 81 ± 11 nM

B9: target 1 G5C,U11C (mixed)
RNA 1: B1 RNA 1
RNA 2: B2 RNA 2 with U31C, U41C, G47C, A48C
Kd: 16.8 ± 1.1 nM

B10: target 1 insG 3' of 20,insU 3' of 18 (mixed)
RNA 1: B1 RNA 1
RNA 2: B1 RNA 2 with U33G, A34U, G35A, A36U, U39G, G40A, U42G
Kd: 65 ± 15 nM

B11: target 1 insG 3' of 14,insG 3' of 7 (mixed)
RNA 1: B1 RNA 1
RNA 2: B1 RNA 2 with U39G, U44A, A45U, U46C, C47G
Kd: 6.8 ± 0.28 nM

B12: target 1 C7G,C22G (mixed)
RNA 1: B1 RNA 1
RNA 2: B2 RNA 2 with C30G, U31C, C45G, A48C
Kd: 38 ± 6 nM

B13: target 1 insA 3' of 13,insG 3' of 11 (mixed)
RNA 1: B1 RNA 1
RNA 2: B1 RNA 2 with U39G, G40A, U43G
Kd: 13.2 ± 0.8 nM

B14: target 1 insA 3' of 2,insU 3' of 1 (mixed)
RNA 1: B1 RNA 1
RNA 2: GGGAAUGGAUCCACAUCUACGAAUUCGUACCAUAGAGAGGUUAUCCGCUCAAUCCGAGAUCGGAAGAGCACACGU
Kd: 10.5 ± 0.6 nM

B15: target 1 insA 3' of 12,insG 3' of 6 (mixed)
RNA 1: B1 RNA 1
RNA 2: B1 RNA 2 with U39G, G41A, U44A, A45U, U46C, C48G
Kd: 28 ± 4 nM

B16: target 1 insC 3' of 18,insG 3' of 3 (mixed)
RNA 1: B1 RNA 1
RNA 2: GGGAAUGGAUCCACAUCUACGAAUUCGUACCAUACGAGAGGUUAUCCGCUGCACCGAGAUCGGAAGAGCACACGU
Kd: 26.8 ± 1.8 nM

B17: target 1 insA 3' of 8,insU 3' of 6 (mixed)
RNA 1: B1 RNA 1
RNA 2: B1 RNA 2 with U39G, G41U, U43A, U46C, C48U
Kd: 23.5 ± 1.4 nM

B18: target 1 G12A,U19A (mixed)
RNA 1: B1 RNA 1
RNA 2: B2 RNA 2 with U31C, U33A, G40A, A48C
Kd: 51 ± 11 nM

B19: target 1 insA 3' of 2,insC 3' of 1 (mixed)
RNA 1: B1 RNA 1
RNA 2: B14 RNA 2 with U53C
Kd: 8.5 ± 0.6 nM

B20: target 1 insU 3' of 20,insA 3' of 10 (mixed)
RNA 1: B1 RNA 1
RNA 2: B1 RNA 2 with A34U, G35A, A36G, G37A, A38G, U39A, U44A
Kd: 19.4 ± 1.1 nM

B21: target 1 insG 3' of 10,insG 3' of 9 (mixed)
RNA 1: B1 RNA 1
RNA 2: B1 RNA 2 with U39G, G41U, U43G, U44A, A45G
Kd: 8.8 ± 0.5 nM

B22: target 1 A1U,U19C (mixed)
RNA 1: B1 RNA 1
RNA 2: B2 RNA 2 with U31C, U33C, A48C, A51U
Kd: 22.2 ± 1.6 nM

B23: target 1 insC 3' of 22,insC 3' of 13 (mixed)
RNA 1: B1 RNA 1
RNA 2: GGGAAUGGAUCCACAUCUACGAAUUCGUACCCAUAGAGAGCGUUAUCCGCUCACCGAGAUCGGAAGAGCACACGU
Kd: 43 ± 15 nM

B24: target 1 insU 3' of 13,insG 3' of 3 (mixed)
RNA 1: B1 RNA 1
RNA 2: B16 RNA 2 with C35G, G36A, A37G, G38A, A39G, G40U
Kd: 14.4 ± 1.9 nM

B25: target 1 insA 3' of 2,insG 3' of 1 (mixed)
RNA 1: B1 RNA 1
RNA 2: B14 RNA 2 with U53G
Kd: 8.6 ± 0.6 nM

B26: target 1 insG 3' of 14,insA 3' of 4 (mixed)
RNA 1: B1 RNA 1
RNA 2: B16 RNA 2 with C35G, G36A, A37G, G38A, A39G, U50A, G51U
Kd: 12.2 ± 1.4 nM

B27: target 1 insC 3' of 14,insG 3' of 6 (mixed)
RNA 1: B1 RNA 1
RNA 2: B1 RNA 2 with U39C, U44A, A45U, U46C, C48G
Kd: 54 ± 6 nM

B28: target 1 U8C,G15C (mixed)
RNA 1: B1 RNA 1
RNA 2: B2 RNA 2 with U31C, G37C, U44C, A48C
Kd: 68 ± 11 nM

B29: target 1 insA 3' of 2,insA 3' of 2 (mixed)
RNA 1: B1 RNA 1
RNA 2: B14 RNA 2 with U53A
Kd: 9.6 ± 0.4 nM
